Measurements reported in patent US20130315910A1 (Xencor, published 2013).
Numbering of substitutions follows the chain as printed. Names may count otherwise. Values belong to the binder of their own block, whether it stands above or below them.

Legend:
Test in all cases: SPR
[1] = molecular target: T1, human FcγRIIb receptor protein (R&D Systems) (human, UniProt P31994 46-217)
T1 construct: Bought protein injected over captured antibody in Biacore; also called CD32b
T1 sequence (looked up): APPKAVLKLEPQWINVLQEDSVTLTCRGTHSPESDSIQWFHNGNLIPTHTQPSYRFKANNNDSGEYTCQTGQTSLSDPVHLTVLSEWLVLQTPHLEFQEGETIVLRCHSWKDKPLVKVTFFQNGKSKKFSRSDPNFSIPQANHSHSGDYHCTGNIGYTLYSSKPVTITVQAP

[2] = molecular target: T2, human FcγRI receptor protein (R&D Systems) (human, UniProt P12314 16-288)
T2 construct: also called soluble FcγRI; solFcγRI

[3] = molecular target: T3, human FcγRIIa (131R), His- and GST-tagged (human, UniProt P12318 34-217)
T3 construct: Expressed in HEK293T cells, purified by nickel chromatography; also called R131 FcγRIIa; not shown: 6xHis and GST tags of the pTT5 vector
T3 sequence (looked up): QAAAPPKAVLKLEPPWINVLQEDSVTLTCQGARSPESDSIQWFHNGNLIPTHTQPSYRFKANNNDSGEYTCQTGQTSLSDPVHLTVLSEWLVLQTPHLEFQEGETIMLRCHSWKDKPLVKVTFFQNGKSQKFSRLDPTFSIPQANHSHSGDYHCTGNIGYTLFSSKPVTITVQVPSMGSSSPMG

[4] = molecular target: T4, human FcγRIIa (131H), His- and GST-tagged (human, UniProt P12318 34-217)
T4 construct: also called H131 FcγRIIa; HIIa; not shown: 6xHis and GST tags of the pTT5 vector
T4 sequence (looked up): T3 sequence (looked up) with R134H

[5] = molecular target: T5, human FcγRIIIa (158V), His- and GST-tagged (human, UniProt P08637 17-208)
T5 construct: also called V158 FcγRIIIa; VIIIa; not shown: 6xHis and GST tags of the pTT5 vector

mFcγRIIb = molecular target: T6, mFcγRIIb (Mus musculus, UniProt P08101)
T6 construct: extracellular region, C-terminal His- and GST-tag; also called mouse FcγRII
T6 sequence (receptor extracellular region, looked up): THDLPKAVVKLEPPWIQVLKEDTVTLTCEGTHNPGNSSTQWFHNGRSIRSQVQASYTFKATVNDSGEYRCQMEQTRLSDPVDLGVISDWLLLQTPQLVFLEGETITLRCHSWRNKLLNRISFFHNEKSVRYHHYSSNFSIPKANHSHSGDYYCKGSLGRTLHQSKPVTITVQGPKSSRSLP

cynoFcγRIIb = molecular target: T7, cynoFcγRIIb (Macaca fascicularis, UniProt A0A140HDP4)
T7 construct: extracellular region, C-terminal His- and GST-tag; also called cynomolgus monkey FcγRIIb
T7 sequence (receptor extracellular region): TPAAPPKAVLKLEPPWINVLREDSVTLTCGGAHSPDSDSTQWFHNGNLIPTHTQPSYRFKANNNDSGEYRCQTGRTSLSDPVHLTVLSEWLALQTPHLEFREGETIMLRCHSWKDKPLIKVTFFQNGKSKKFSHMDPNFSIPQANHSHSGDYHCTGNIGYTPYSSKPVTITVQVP

T2 sequence (P12314 16-288 limits assumed): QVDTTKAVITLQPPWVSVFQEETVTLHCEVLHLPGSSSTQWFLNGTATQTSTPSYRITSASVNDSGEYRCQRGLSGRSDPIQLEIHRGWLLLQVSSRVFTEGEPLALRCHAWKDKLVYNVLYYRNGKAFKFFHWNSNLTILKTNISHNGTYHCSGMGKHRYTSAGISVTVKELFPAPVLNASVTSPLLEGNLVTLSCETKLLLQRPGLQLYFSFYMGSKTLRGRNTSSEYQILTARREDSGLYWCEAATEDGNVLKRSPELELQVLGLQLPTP
T5 sequence (P08637 17-208 F176V): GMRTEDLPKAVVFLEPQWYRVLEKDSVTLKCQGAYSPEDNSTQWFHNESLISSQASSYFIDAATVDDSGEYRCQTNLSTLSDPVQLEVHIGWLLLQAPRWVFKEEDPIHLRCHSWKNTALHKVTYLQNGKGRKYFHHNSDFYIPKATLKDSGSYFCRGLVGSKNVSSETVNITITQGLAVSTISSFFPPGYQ

- Fold vs WT IgG1 [1]: 84.8 fold
- Kd [1]: 17.3 nM
- Fold vs WT IgG1 [2]: 0.0685 fold
- Kd [2]: 4.81 nM
- Fold vs WT IgG1 [3]: 26.7 fold
- Kd [3]: 32.2 nM
- Fold vs WT IgG1 [4]: 0.217 fold
- Kd [4]: 2980 nM
- binding result [5]: no binding
B1: G236D/S239D/S267E (antibody, human IgG1, kappa)
heavy: EVQLVESGGGLVKPGGSLKLSCAASGYTFTSYVMHWVRQAPGKGLEWIGYINPYNDGTKYNEKFQGRVTISSDKSISTAYMELSSLRSEDTAMYYCARGTYYYGTRVFDYWGQGTLVTVSSASTKGPSVFPLAPSSKSTSGGTAALGCLVKDYFPEPVTVSWNSGALTSGVHTFPAVLQSSGLYSLSSVVTVPSSSLGTQTYICNVNHKPSNTKVDKKVEPKSCDKTHTCPPCPAPELLDGPDVFLFPPKPKDTLMISRTPEVTCVVVDVEHEDPEVKFNWYVDGVEVHNAKTKPREEQYNSTYRVVSVLTVLHQDWLNGKEYKCKVSNKALPAPIEKTISKAKGQPREPQVYTLPPSREEMTKNQVSLTCLVKGFYPSDIAVEWESNGQPENNYKTTPPVLDSDGSFFLYSKLTVDKSRWQQGNVFSCSVMHEALHNHYTQKSLSLSPGK
light: DIVMTQSPATLSLSPGERATLSCRSSKSLQNVNGNTYLYWFQQKPGQSPQLLIYRMSNLNSGVPDRFSGSGSGTEFTLTISSLEPEDFAVYYCMQHLEYPITFGAGTKLEIKRTVAAPSVFIFPPSDEQLKSGTASVVCLLNNFYPREAKVQWKVDNALQSGNSQESVTEQDSKDSTYSLSSTLTLSKADYEKHKVYACEVTHQGLSSPVTKSFNRGEC
notes: HuAM4G7 anti-CD19 IgG1 (m1) with these Fc substitutions, EU index; copies: 2 + 2

- Fold vs WT IgG1 [1]: 195 fold
- Kd [1]: 7.53 nM
- Fold vs WT IgG1 [2]: 0.0425 fold
- Kd [2]: 7.75 nM
- Fold vs WT IgG1 [3]: 174 fold
- Kd [3]: 4.93 nM
- Fold vs WT IgG1 [4]: 0.0725 fold
- Kd [4]: 8920 nM
- binding result [5]: no binding
B2: L234E/S267E/L328F (antibody, human IgG1, kappa)
heavy: B1 heavy with L238E, D240G, D243S, L332F
light: B1 light
notes: as for B1

- Kd [1]: 1770 nM
- Kd [2]: 10.5 nM
- Kd [4]: 1160 nM
- Kd [5]: 6590 nM
B3: L234W (antibody, human IgG1, kappa)
heavy: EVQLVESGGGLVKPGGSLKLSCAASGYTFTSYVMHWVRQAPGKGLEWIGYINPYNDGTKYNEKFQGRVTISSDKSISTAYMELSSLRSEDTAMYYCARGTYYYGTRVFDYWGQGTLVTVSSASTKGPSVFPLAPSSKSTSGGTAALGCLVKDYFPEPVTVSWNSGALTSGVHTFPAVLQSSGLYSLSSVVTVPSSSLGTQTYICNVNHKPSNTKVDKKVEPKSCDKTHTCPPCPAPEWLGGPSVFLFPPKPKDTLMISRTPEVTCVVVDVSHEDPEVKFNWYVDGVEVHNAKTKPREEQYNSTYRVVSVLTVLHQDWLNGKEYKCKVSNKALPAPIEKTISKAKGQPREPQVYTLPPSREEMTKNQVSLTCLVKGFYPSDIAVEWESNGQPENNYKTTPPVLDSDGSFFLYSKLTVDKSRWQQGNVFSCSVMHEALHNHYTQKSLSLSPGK
light: B1 light
notes: HuAM4G7 anti-CD19 IgG1 (m1) with this Fc substitution, EU index; copies: 2 + 2

- Fold vs WT IgG1 [1]: 0.00225 fold
- Kd [1]: 652000 nM
- Fold vs WT IgG1 [2]: 0.0157 fold
- Kd [2]: 21 nM
- Fold vs WT IgG1 [3]: 0.35 fold
- Kd [3]: 2460 nM
- Fold vs WT IgG1 [4]: 0.486 fold
- Kd [4]: 1330 nM
- binding result [5]: no binding
B4: G236T (antibody, human IgG1, kappa)
heavy: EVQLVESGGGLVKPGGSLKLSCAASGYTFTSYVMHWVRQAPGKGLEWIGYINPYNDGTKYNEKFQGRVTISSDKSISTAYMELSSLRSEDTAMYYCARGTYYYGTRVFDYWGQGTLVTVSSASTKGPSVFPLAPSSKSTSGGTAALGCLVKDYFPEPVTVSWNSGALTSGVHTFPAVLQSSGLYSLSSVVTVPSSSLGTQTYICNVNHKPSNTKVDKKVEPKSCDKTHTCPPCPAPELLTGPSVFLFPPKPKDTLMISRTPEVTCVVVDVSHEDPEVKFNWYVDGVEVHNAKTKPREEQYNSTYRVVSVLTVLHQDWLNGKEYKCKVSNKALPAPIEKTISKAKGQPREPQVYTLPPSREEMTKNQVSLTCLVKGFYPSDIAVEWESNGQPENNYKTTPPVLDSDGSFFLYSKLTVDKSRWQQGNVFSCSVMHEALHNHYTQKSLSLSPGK
light: B1 light
notes: as for B3

- Kd [1]: 541 nM
- Kd [2]: 0.452 nM
- Kd [3]: 166 nM
- Kd [5]: 58400 nM
B5: L328F (antibody, human IgG1, kappa)
heavy: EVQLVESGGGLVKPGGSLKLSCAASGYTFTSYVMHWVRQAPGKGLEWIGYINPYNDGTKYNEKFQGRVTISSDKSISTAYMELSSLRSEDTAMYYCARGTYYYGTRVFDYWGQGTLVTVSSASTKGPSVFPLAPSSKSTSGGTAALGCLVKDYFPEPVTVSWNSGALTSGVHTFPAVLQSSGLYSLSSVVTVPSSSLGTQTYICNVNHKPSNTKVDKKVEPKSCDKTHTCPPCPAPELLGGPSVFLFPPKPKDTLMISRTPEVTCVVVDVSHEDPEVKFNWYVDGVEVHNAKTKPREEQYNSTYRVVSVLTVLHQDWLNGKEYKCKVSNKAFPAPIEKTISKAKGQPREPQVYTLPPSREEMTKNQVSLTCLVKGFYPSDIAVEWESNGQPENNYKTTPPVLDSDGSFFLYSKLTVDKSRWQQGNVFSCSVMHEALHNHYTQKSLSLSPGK
light: B1 light
notes: as for B3

- Fold vs WT IgG1 [1]: 149 fold
- Kd [1]: 9.87 nM
- Fold vs WT IgG1 [2]: 0.0736 fold
- Kd [2]: 4.48 nM
- Fold vs WT IgG1 [3]: 59.9 fold
- Kd [3]: 14.3 nM
- Fold vs WT IgG1 [4]: 0.0301 fold
- Kd [4]: 21500 nM
- binding result [5]: no binding
B6: G236D/S267E/L328F (antibody, human IgG1, kappa)
heavy: B1 heavy with D243S, L332F
light: B1 light
notes: as for B1

- Fold vs WT IgG1 [1]: 40.5 fold
- Kd [1]: 36.2 nM
- Fold vs WT IgG1 [2]: 0.101 fold
- Kd [2]: 3.25 nM
- Fold vs WT IgG1 [3]: 61.5 fold
- Kd [3]: 14 nM
- binding result [5]: no binding
B7: G237N/S267E (antibody, human IgG1, kappa)
heavy: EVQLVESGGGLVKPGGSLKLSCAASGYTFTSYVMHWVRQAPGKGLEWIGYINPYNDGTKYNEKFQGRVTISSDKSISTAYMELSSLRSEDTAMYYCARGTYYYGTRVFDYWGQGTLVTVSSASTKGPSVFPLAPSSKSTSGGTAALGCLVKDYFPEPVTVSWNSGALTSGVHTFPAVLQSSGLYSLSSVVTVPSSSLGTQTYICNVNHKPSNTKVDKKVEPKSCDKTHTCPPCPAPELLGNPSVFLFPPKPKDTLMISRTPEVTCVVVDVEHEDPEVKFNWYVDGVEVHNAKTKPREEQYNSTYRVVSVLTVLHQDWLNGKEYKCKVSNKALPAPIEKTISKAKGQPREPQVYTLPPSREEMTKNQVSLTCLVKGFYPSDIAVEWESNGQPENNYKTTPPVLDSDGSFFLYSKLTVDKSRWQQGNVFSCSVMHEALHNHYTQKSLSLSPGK
light: B1 light
notes: as for B1

- Fold vs WT IgG1 [1]: 16.7 fold
- Kd [1]: 88.1 nM
- Fold vs WT IgG1 [2]: 0.00039 fold
- Kd [2]: 854 nM
- Fold vs WT IgG1 [3]: 13 fold
- Kd [3]: 66.1 nM
- binding result [4]: no binding
- binding result [5]: no binding
B8: L235D/S267E (antibody, human IgG1, kappa)
heavy: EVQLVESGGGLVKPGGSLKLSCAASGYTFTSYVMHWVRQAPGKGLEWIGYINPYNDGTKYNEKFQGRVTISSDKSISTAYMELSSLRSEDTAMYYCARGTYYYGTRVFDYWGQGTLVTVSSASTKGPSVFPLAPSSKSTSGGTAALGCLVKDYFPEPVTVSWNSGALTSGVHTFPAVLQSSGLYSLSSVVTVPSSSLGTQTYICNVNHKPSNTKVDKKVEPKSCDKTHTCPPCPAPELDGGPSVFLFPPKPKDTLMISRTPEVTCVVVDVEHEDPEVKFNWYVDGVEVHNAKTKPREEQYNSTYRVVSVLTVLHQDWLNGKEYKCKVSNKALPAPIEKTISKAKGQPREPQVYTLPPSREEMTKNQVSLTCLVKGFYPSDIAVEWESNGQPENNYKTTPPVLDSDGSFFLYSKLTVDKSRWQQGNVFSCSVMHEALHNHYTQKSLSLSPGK
light: B1 light
notes: as for B1

- Fold vs WT IgG1 [1]: 17 fold
- Kd [1]: 86.1 nM
- Fold vs WT IgG1 [2]: 0.0874 fold
- Kd [2]: 3.77 nM
- Fold vs WT IgG1 [3]: 13.6 fold
- Kd [3]: 63.1 nM
- binding result [4]: no binding
- binding result [5]: no binding
B9: G237D/S267E (antibody, human IgG1, kappa)
heavy: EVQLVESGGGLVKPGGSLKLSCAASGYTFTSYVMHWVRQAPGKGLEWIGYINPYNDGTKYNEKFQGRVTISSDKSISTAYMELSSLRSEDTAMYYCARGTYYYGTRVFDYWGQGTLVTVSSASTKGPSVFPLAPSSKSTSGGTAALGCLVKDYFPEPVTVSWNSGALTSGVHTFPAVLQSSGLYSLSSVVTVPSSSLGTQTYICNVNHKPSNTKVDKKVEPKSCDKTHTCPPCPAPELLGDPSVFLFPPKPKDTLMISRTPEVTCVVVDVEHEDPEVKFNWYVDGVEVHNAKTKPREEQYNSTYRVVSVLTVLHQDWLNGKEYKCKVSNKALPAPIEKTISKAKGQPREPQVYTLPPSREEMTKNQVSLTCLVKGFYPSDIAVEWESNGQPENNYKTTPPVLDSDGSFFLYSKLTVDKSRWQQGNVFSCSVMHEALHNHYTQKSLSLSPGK
light: B1 light
notes: as for B1

- Fold vs WT IgG1 [1]: 26.4 fold
- Kd [1]: 55.7 nM
- Fold vs WT IgG1 [2]: 0.661 fold
- Kd [2]: 0.498 nM
- Fold vs WT IgG1 [3]: 20.7 fold
- Kd [3]: 41.6 nM
- Fold vs WT IgG1 [4]: 0.509 fold
- Kd [4]: 1270 nM
- Fold vs WT IgG1 [5]: 0.0938 fold
- Kd [5]: 2040 nM
B10: L234F/S267E (antibody, human IgG1, kappa)
heavy: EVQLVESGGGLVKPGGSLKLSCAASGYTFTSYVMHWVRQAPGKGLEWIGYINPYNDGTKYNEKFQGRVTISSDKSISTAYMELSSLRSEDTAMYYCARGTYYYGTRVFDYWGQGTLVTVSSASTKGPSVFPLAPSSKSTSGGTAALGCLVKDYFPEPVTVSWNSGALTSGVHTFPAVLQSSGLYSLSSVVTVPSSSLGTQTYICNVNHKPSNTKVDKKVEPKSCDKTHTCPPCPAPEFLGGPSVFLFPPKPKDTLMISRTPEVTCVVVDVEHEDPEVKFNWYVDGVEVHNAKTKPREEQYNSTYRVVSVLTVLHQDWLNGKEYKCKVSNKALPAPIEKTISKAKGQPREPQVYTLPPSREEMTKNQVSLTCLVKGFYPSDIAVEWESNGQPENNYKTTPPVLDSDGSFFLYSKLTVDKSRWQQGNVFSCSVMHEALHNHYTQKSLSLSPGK
light: B1 light
notes: as for B1

- Fold vs WT IgG1 [1]: 110 fold
- Kd [1]: 13.4 nM
- Fold vs WT IgG1 [2]: 0.0902 fold
- Kd [2]: 3.65 nM
- Fold vs WT IgG1 [3]: 29.9 fold
- Kd [3]: 28.7 nM
- Fold vs WT IgG1 [4]: 0.103 fold
- Kd [4]: 6300 nM
- binding result [5]: no binding
B11: G236D/S267E/H268E (antibody, human IgG1, kappa)
heavy: B1 heavy with D243S, H272E
light: B1 light
notes: as for B1

- Fold vs WT IgG1 [1]: 42.3 fold
- Kd [1]: 34.7 nM
- Fold vs WT IgG1 [3]: 98.5 fold
- Kd [3]: 8.72 nM
- Fold vs WT IgG1 (Kd) (mFcγRIIb): 0.761 fold
- Fold vs WT IgG1 (Kd) (cynoFcγRIIb): 2.25 fold
B12: L234W/S239E/S267E (antibody, human IgG1, kappa)
heavy: B1 heavy with L238W, D240G, D243E
light: B1 light
notes: as for B1

- Fold vs WT IgG1 [1]: 15.1 fold
- Kd [1]: 97 nM
- Fold vs WT IgG1 [2]: 0.131 fold
- Kd [2]: 2.51 nM
- Fold vs WT IgG1 [3]: 10.7 fold
- Kd [3]: 80.4 nM
- binding result [4]: no binding
- binding result [5]: no binding
B13: L234E/S267E (antibody, human IgG1, kappa)
heavy: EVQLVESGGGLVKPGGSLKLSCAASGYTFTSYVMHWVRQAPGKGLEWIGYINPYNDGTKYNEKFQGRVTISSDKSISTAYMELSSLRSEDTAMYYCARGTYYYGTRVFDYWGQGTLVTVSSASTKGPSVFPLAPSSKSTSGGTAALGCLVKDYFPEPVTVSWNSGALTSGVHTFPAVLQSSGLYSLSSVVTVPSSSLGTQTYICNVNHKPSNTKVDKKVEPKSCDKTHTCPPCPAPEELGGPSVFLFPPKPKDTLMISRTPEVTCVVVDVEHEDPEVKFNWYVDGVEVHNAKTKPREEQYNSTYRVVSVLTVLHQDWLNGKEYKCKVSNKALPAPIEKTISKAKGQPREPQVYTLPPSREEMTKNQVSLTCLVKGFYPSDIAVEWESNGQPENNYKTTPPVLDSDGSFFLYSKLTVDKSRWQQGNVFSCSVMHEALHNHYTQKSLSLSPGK
light: B1 light
notes: as for B1
